Results reported in the Immune Epitope Database (IEDB).

How the values were obtained:
Assay in all cases: IEDB peptide-MHC binding, purified MHC/competitive/radioactivity; filed as Kd, often an IC50 or EC50 that approximates it; ≥ and ≤ were set here for values at or beyond the usual limits of such assays
HLA-A*03:01 = biological target: HLA-A*03:01
HLA-A*11:01 = biological target: HLA-A*11:01
HLA-A*31:01 = biological target: HLA-A*31:01
HLA-A*33:01 = biological target: HLA-A*33:01
HLA-A*68:01 = biological target: HLA-A*68:01
[1] = source organism: Vaccinia virus WR
[2] = source organism: SARS coronavirus Tor2
[3] = source organism: Dengue virus 1 Brazil/97-11/1997
[4] = source organism: Dengue virus 1 Nauru/West Pac/1974
[5] = source organism: Lymphocytic choriomeningitis virus (strain WE)
[6] = source organism: Mammarenavirus whitewaterense
[7] = source organism: Dengue virus 4 Dominica/814669/1981
[8] = source organism: Dengue virus 4 Philippines/H241/1956

Sequence	Kd (HLA-A*03:01; [1])	Kd (HLA-A*11:01; [1])	Kd (HLA-A*31:01; [1])	Kd (HLA-A*33:01; [1])	Kd (HLA-A*68:01; [1])	also measured
NQNLIPSTVK	14100 nM	360 nM	≥ 24800 nM	≥ 70000 nM	406 nM	–
STCMMCYKR	–	–	–	–	–	Kd (HLA-A*03:01; [2]): 2250 nM; Kd (HLA-A*11:01; [2]): 9.05 nM; Kd (HLA-A*31:01; [2]): 5.01 nM; Kd (HLA-A*33:01; [2]): 24.5 nM; Kd (HLA-A*68:01; [2]): 17.8 nM
MSAPPAEYK	–	–	–	–	–	Kd (HLA-A*03:01; [2]): 4.14 nM; Kd (HLA-A*11:01; [2]): 0.948 nM; Kd (HLA-A*31:01; [2]): 37.8 nM; Kd (HLA-A*33:01; [2]): 1860 nM; Kd (HLA-A*68:01; [2]): 2.36 nM
DTMTYKCPR	–	–	–	–	–	Kd (HLA-A*31:01; [3]): 4880 nM; Kd (HLA-A*33:01; [3]): 6.64 nM; Kd (HLA-A*68:01; [3]): 67.1 nM
KFLELKRGIY	1240 nM	≥ 69800 nM	22.6 nM	≥ 70000 nM	10900 nM	–
STVSQLAKR	–	–	–	–	–	Kd (HLA-A*31:01; [4]): ≥ 77900 nM; Kd (HLA-A*68:01; [4]): 9.66 nM
SIKIKQDVR	10800 nM	5370 nM	313 nM	4450 nM	316 nM	–
LMTLDDLAIK	1670 nM	478 nM	≥ 40700 nM	≥ 20900 nM	2490 nM	–
KLFKKTDFK	8.46 nM	8.86 nM	8.08 nM	13900 nM	6280 nM	–
SAYLISIFLH	–	–	–	–	–	Kd (HLA-A*03:01; [5]): 668 nM; Kd (HLA-A*11:01; [5]): 5450 nM; Kd (HLA-A*31:01; [5]): 250 nM; Kd (HLA-A*33:01; [5]): 874 nM; Kd (HLA-A*68:01; [5]): ≥ 30900 nM
KCFANNQDER	–	–	–	–	–	Kd (HLA-A*03:01; [6]): ≥ 70000 nM; Kd (HLA-A*11:01; [6]): ≥ 60300 nM; Kd (HLA-A*31:01; [6]): 6690 nM; Kd (HLA-A*33:01; [6]): ≥ 70000 nM; Kd (HLA-A*68:01; [6]): 6890 nM
PLHKYCVNLY	≥ 70100 nM	≥ 25600 nM	≥ 23200 nM	14400 nM	6570 nM	–
DLTALLSCIR	13200 nM	1560 nM	510 nM	76.8 nM	10.9 nM	–
MLPESDLDK	5640 nM	2080 nM	≥ 36200 nM	≥ 73200 nM	1240 nM	–
FFVFIHMVR	0.874 nM	3780 nM	1.08 nM	0.46 nM	0.0241 nM	–
LIPVSEVLLK	5230 nM	609 nM	≥ 70000 nM	≥ 70000 nM	1210 nM	–

Sequence	Kd (HLA-A*03:01; [1])	Kd (HLA-A*11:01; [1])	Kd (HLA-A*31:01; [1])	Kd (HLA-A*33:01; [1])	Kd (HLA-A*68:01; [1])	also measured
DVLEIINDK	≥ 53500 nM	4580 nM	≥ 53300 nM	719 nM	720 nM	–
CIPSRSKMLK	1.09 nM	4.27 nM	64.5 nM	63.2 nM	27.9 nM	–
SVFKGFSDK	4.28 nM	0.852 nM	764 nM	13500 nM	5.49 nM	–
PSLEYGANY	17100 nM	≥ 21700 nM	≥ 10000 nM	7940 nM	≥ 60600 nM	–
RQQLEDIFMR	4830 nM	10200 nM	7000 nM	≥ 58800 nM	2560 nM	–
VLMHPDFCK	8.68 nM	4.33 nM	227 nM	1380 nM	259 nM	–
MVLLQMENK	–	–	–	–	–	Kd (HLA-A*11:01; source organism: Dengue virus 2 Thailand/NGS-C/1944): 227 nM
AIKILIGFRK	–	–	–	–	–	Kd (HLA-A*03:01; [7]): 215 nM; Kd (HLA-A*11:01; [7]): 432 nM
QSYRQYRNY	2560 nM	1600 nM	2270 nM	109 nM	17100 nM	–
AIITPVVFY	409 nM	0.362 nM	≥ 10000 nM	≥ 45500 nM	1470 nM	–
EDKAWLVHR	–	–	–	–	–	Kd (HLA-A*33:01; source organism: Dengue virus 2 Jamaica/1409/1983): 15.6 nM
IVSSVNTTSK	–	–	–	–	–	Kd (HLA-A*03:01; [8]): 37.2 nM; Kd (HLA-A*11:01; [8]): 234 nM
VLDIISSKQY	601 nM	9680 nM	518 nM	1430 nM	1390 nM	–
NIVMLHTTER	–	–	–	–	–	Kd (HLA-A*33:01; [8]): 83.8 nM; Kd (HLA-A*68:01; [8]): 16.9 nM
YTIERIFNAK	231 nM	36.2 nM	3550 nM	875 nM	10.3 nM	–
